Test results published in US20200048328A1 (Bristol-Myers Squibb, published 2020).

Columns and labels:
[1] = molecular target: T1, human PCSK9 (human, UniProt Q8NBP7 31-692); assay: PCSK9:EGFA FRET 1, competition
T1 construct: also called hPCSK9; huPCSK9

[2] = molecular target: T1, human PCSK9; assay: PCSK9:LDLR FRET, competition
[3] = molecular target: T1, human PCSK9; assay: PCSK9:EGFA FRET 2, competition
[4] = molecular target: T2, mouse serum albumin (mouse, UniProt P07724 25-608); assay: direct binding ELISA, albumin coated
T2 construct: also called MSA; MuSA

[5] = molecular target: T3, human serum albumin (human, UniProt P02768 25-609); assay: direct binding ELISA, albumin coated
T3 construct: immobilized on chips or coated on plates elsewhere; also called HSA; HuSA

[6] = molecular target: T4, rhesus serum albumin (rhesus, UniProt Q28522 17-600); assay: direct binding ELISA, albumin coated
T4 construct: also called RhSA; Rh-SA

[7] = molecular target: T1, human PCSK9; assay: BLI (Octet), biotinylated PCSK9 on tips, tandem in complex with excess HSA
[8] = molecular target: T1, human PCSK9; assay: BLI (Octet), biotinylated PCSK9 on tips, no HSA
[9] = molecular target: T2, mouse serum albumin; assay: SPR, albumin immobilized, acetate pH 7.4
[10] = molecular target: T3, human serum albumin; assay: SPR, albumin immobilized, acetate pH 7.4
[11] = molecular target: T4, rhesus serum albumin; assay: SPR, albumin immobilized, acetate pH 7.4
[12] = molecular target: T2, mouse serum albumin; assay: SPR, albumin immobilized, HBSP pH 7.4
[13] = molecular target: T3, human serum albumin; assay: SPR, albumin immobilized, HBSP pH 7.4
[14] = molecular target: T4, rhesus serum albumin; assay: SPR, albumin immobilized, HBSP pH 7.4
[15] = molecular target: T2, mouse serum albumin; assay: SPR, albumin immobilized, acetate pH 5.5
[16] = molecular target: T3, human serum albumin; assay: SPR, albumin immobilized, acetate pH 5.5
[17] = molecular target: T4, rhesus serum albumin; assay: SPR, albumin immobilized, acetate pH 5.5
[18] = molecular target: T2, mouse serum albumin; assay: SPR, albumin immobilized;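 note: biacore SPR with human, rhesus or mouse serum albumin amine-coupled to the chip (about 1200 RU), 3 min association, 6-10 min dissociation, reference-subtracted traces fitted with a 1:1 model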
[19] = molecular target: T3, human serum albumin; assay: SPR, albumin immobilized;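 note: biacore SPR with human, rhesus or mouse serum albumin amine-coupled to the chip (about 1200 RU), 3 min association, 6-10 min dissociation, reference-subtracted traces fitted with a 1:1 model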
[20] = molecular target: T4, rhesus serum albumin; assay: SPR, albumin immobilized;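 note: biacore SPR with human, rhesus or mouse serum albumin amine-coupled to the chip (about 1200 RU), 3 min association, 6-10 min dissociation, reference-subtracted traces fitted with a 1:1 model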

B1: PCSK9-PKE2 tandem 4472_E04 (designed binder, not shown: small tags and cut ends)
PCSK9 10Fn3: MGVSDVPRDLEVVAATPTSLLISWDAPAEGYGYYRITYGETGGNSPVQEFTVPVSKGTATISGLKPGVDYTITVYAVEFDFPGAGYYHRPISINYRTE
PKE2 10Fn3: GVSDVPRDLEVVAATPTSLLISWDAPAVTVRYYRITYGREVQKYSDLGPLYIYQEFTVPGSKSTATISGLKPGVDYTITVYAVTGSGESPASSKPISINYRTEHHHHHH
modifications: The two parts are one polypeptide in the real molecule, joined by the undisclosed linker Q; they are given here as separate chains.
IC50 [1]: 9.45 nM
IC50 [2]: 2 nM
IC50 [3]: 7.54 nM
EC50 [4]: 8.9 nM
EC50 [5]: 101 nM
EC50 [6]: 64.8 nM

B2: PCSK9-PKE2 tandem 4472_H11 (designed binder, not shown: small tags and cut ends)
PCSK9 10Fn3: B1 PCSK9 10Fn3
PKE2 10Fn3: B1 PKE2 10Fn3
modifications: The two parts are one polypeptide in the real molecule, joined by the undisclosed linker P (a code, not a proline); they are given here as separate chains.
IC50 [1]: 8.76 nM
IC50 [2]: 1.3 nM
IC50 [3]: 6.24 nM
EC50 [4]: 13.2 nM
EC50 [5]: 85.3 nM
EC50 [6]: 58.1 nM

B3: PCSK9-PKE2 tandem 4472_H09 (designed binder)
PCSK9 domain: B1 PCSK9 10Fn3
PKE2 domain: B1 PKE2 10Fn3
modifications: The real molecule is ONE polypeptide: PCSK9 domain, undisclosed linker C, PKE2 domain. It is given here as two chains because the linker letters are unknown.
notes: not shown: The inter-domain linker
IC50 [1]: 9.66 nM
IC50 [2]: 3 nM
IC50 [3]: 7.17 nM
EC50 [4]: 4 nM
EC50 [5]: 27.8 nM
EC50 [6]: 26.8 nM

B4: PCSK9-PKE2 tandem 4472_F06 (designed binder)
PCSK9 domain: B1 PCSK9 10Fn3
PKE2 domain: B1 PKE2 10Fn3
modifications: The real molecule is ONE polypeptide: PCSK9 domain, undisclosed linker 'G' (a code letter, not the residue), PKE2 domain. It is given here as two chains because the linker letters are unknown.
notes: as for B3
IC50 [1]: 4.5 nM
IC50 [2]: 1.1 nM
IC50 [3]: 3.42 nM
EC50 [4]: 11.3 nM
EC50 [5]: 58.9 nM
EC50 [6]: 40.8 nM

B5: PCSK9-PKE2 tandem 4472_G10 (designed binder)
PCSK9 domain: B1 PCSK9 10Fn3
PKE2 domain: B1 PKE2 10Fn3
modifications: The real molecule is ONE polypeptide: PCSK9 domain, undisclosed linker H (a code letter), PKE2 domain. It is given here as two chains because the linker letters are unknown.
notes: as for B3
IC50 [1]: 7.81 nM
IC50 [2]: 2.4 nM
IC50 [3]: 6.81 nM
EC50 [4]: 10 nM
EC50 [5]: 61.3 nM
EC50 [6]: 48.3 nM

B6: PCSK9-PKE2 tandem 4472_B05 (designed binder, not shown: small tags and cut ends)
PCSK9 10Fn3: B1 PCSK9 10Fn3
PKE2 10Fn3: B1 PKE2 10Fn3
modifications: The two parts are one polypeptide in the real molecule, joined by the undisclosed linker O; they are given here as separate chains.
IC50 [1]: 6.66 nM
IC50 [2]: 1.9 nM
IC50 [3]: 5.55 nM
EC50 [4]: 9.3 nM
EC50 [5]: 85.1 nM
EC50 [6]: 59.5 nM

B7: PCSK9-PKE2 tandem 4472_A11 (designed binder)
PCSK9 domain: B1 PCSK9 10Fn3
PKE2 domain: B1 PKE2 10Fn3
modifications: In the real molecule the two parts given here are one polypeptide, joined by the undisclosed linker B. They are written as two chains only because the linker has no letters.
notes: not shown: Linker 'B' joining ...NYRTE of the PCSK9 domain to GVSDV... of the PKE2 domain
IC50 [1]: 6.13 nM
IC50 [2]: 1.4 nM
IC50 [3]: 3.76 nM
EC50 [4]: 3.9 nM
EC50 [5]: 26.9 nM
EC50 [6]: 15.7 nM

B8: PCSK9-PKE2 tandem 4472_E06 (designed binder)
PCSK9 domain: B1 PCSK9 10Fn3
PKE2 domain: B1 PKE2 10Fn3
modifications: The real molecule is ONE polypeptide: PCSK9 domain, undisclosed linker I (a code letter), PKE2 domain. It is given here as two chains because the linker letters are unknown.
notes: also called 4427_E06; not shown: The inter-domain linker
IC50 [1]: 7.67 nM
IC50 [2]: 1.6 nM
Kd [7]: 1 nM
koff [7]: 0.000209 s⁻¹
kon [7]: 207000 M⁻¹ s⁻¹
Kd [8]: 0.724 nM
koff [8]: 0.0002 s⁻¹
kon [8]: 281000 M⁻¹ s⁻¹
Kd [9]: 26.1 nM
koff [9]: 0.000362 s⁻¹
kon [9]: 14100 M⁻¹ s⁻¹
Kd [10]: 64.9 nM
koff [10]: 0.000383 s⁻¹
kon [10]: 5910 M⁻¹ s⁻¹
Kd [11]: 65.4 nM
koff [11]: 0.000408 s⁻¹
kon [11]: 6240 M⁻¹ s⁻¹
IC50 [3]: 5.68 nM
Kd [12]: 21.8 nM
koff [12]: 0.00033 s⁻¹
kon [12]: 15200 M⁻¹ s⁻¹
Kd [13]: 61.4 nM
koff [13]: 0.000292 s⁻¹
kon [13]: 4760 M⁻¹ s⁻¹
Kd [14]: 64.9 nM
koff [14]: 0.000332 s⁻¹
kon [14]: 5110 M⁻¹ s⁻¹
Kd [15]: 114 nM
koff [15]: 0.00152 s⁻¹
kon [15]: 13400 M⁻¹ s⁻¹
Kd [16]: 35.2 nM
koff [16]: 0.000478 s⁻¹
kon [16]: 13600 M⁻¹ s⁻¹
Kd [17]: 91.1 nM
koff [17]: 0.000788 s⁻¹
kon [17]: 8640 M⁻¹ s⁻¹
Kd [18]: 20 nM
koff [18]: 0.0003 s⁻¹
kon [18]: 15000 M⁻¹ s⁻¹
Kd [19]: 68.4 nM
koff [19]: 0.000362 s⁻¹
kon [19]: 5300 M⁻¹ s⁻¹
Kd [20]: 71.9 nM
koff [20]: 0.000415 s⁻¹
kon [20]: 5770 M⁻¹ s⁻¹
EC50 [4]: 4.2 nM
EC50 [5]: 67.3 nM
EC50 [6]: 40.1 nM

B9: PCSK9-PKE2 tandem 4472_D08 (designed binder, not shown: small tags and cut ends)
PCSK9 10Fn3: B1 PCSK9 10Fn3
PKE2 10Fn3: B1 PKE2 10Fn3
modifications: The two parts are one polypeptide in the real molecule, joined by the undisclosed linker N; they are given here as separate chains.
IC50 [1]: 6.32 nM
IC50 [2]: 1.7 nM
IC50 [3]: 5.22 nM
EC50 [4]: 9.5 nM
EC50 [5]: 80.2 nM
EC50 [6]: 54.1 nM

B10: PCSK9-PKE2 tandem 4472_A06 (designed binder, not shown: small tags and cut ends)
PCSK9 10Fn3: B1 PCSK9 10Fn3
PKE2 10Fn3: B1 PKE2 10Fn3
modifications: The two parts are one polypeptide in the real molecule, joined by the undisclosed linker M; they are given here as separate chains.
IC50 [1]: 9.06 nM
IC50 [2]: 1.6 nM
IC50 [3]: 2.72 nM
EC50 [4]: 8.6 nM
EC50 [5]: 77.8 nM
EC50 [6]: 44.4 nM
